Measurements: article PMC10397247

How the values were obtained:
Test in all cases: two-hybrid library CCmax;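 note: natural log of median RNA to DNA barcode read ratio; higher means stronger binding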
4H895-AA = molecular target: T1, 4H895-AA; conditions: mean of both orientations
T1 chain: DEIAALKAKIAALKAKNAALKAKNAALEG

4H486-AA = molecular target: T2, 4H486-AA; conditions: mean of both orientations
T2 chain: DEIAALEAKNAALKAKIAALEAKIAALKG

4H1802-AA = molecular target: T3, 4H1802-AA; conditions: mean of both orientations
T3 chain: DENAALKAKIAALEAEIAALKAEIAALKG

4H1350-AA = molecular target: T4, 4H1350-AA
T4 chain: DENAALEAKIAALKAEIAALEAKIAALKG

4H2512-AA = molecular target: T5, 4H2512-AA; conditions: mean of both orientations
T5 chain: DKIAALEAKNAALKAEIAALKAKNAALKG

4H662-AA = molecular target: T6, 4H662-AA; conditions: mean of both orientations
T6 chain: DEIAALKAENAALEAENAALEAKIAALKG

4H2211-AA = molecular target: T7, 4H2211-AA; conditions: mean of both orientations
T7 chain: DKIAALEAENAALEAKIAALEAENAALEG

4H122-AA = molecular target: T8, 4H122-AA; conditions: mean of both orientations
T8 chain: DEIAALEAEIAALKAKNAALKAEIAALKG

4H1352-AA = molecular target: T9, 4H1352-AA
T9 chain: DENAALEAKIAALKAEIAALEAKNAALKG

4H428-AA = molecular target: T10, 4H428-AA; conditions: mean of both orientations
T10 chain: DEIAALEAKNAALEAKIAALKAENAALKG

4H2948-AA = molecular target: T11, 4H2948-AA; conditions: mean of both orientations
T11 chain: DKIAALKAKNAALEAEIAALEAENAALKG

4H656-AA = molecular target: T12, 4H656-AA; conditions: mean of both orientations
T12 chain: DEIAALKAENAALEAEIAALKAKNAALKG

4H3666-AA = molecular target: T13, 4H3666-AA; conditions: mean of both orientations
T13 chain: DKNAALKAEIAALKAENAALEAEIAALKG

4H1146-AA = molecular target: T14, 4H1146-AA; conditions: mean of both orientations
T14 chain: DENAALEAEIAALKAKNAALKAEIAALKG

APC8191-AA = molecular target: T15, APC8191-AA; conditions: mean of both orientations
T15 chain: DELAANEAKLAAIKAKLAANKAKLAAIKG

4H2458-AA = molecular target: T16, 4H2458-AA; conditions: mean of both orientations
T16 chain: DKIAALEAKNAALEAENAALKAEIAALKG

4H2447-AA = molecular target: T17, 4H2447-AA; conditions: mean of both orientations
T17 chain: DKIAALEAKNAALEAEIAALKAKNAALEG

APC8910-AA = molecular target: T18, APC8910-AA; conditions: mean of both orientations
T18 chain: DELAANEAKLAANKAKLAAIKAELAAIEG

APC1015-AA = molecular target: T19, APC1015-AA
T19 chain: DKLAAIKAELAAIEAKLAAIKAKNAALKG

APC7099-AA = molecular target: T20, APC7099-AA; conditions: mean of both orientations
T20 chain: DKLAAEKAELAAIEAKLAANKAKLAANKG

APC9096-AA = molecular target: T21, APC9096-AA; conditions: mean of both orientations
T21 chain: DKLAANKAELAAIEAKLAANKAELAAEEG

APC232-AA = molecular target: T22, APC232-AA; conditions: mean of both orientations
T22 chain: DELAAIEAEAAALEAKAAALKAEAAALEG

P5-AA-12HGe-D = molecular target: T23, P5-AA-12HGe-D; conditions: mean of both orientations
T23 chain: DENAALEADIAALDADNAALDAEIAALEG

P5-AA-1HAA-N = molecular target: T24, P5-AA-1HAA-N; conditions: mean of both orientations
T24 chain: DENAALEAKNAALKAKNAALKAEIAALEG

P5-AA-1HGe-H = molecular target: T25, P5-AA-1HGe-H; conditions: mean of both orientations
T25 chain: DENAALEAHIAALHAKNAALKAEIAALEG

P5-AA-12HGe-S = molecular target: T26, P5-AA-12HGe-S; conditions: mean of both orientations
T26 chain: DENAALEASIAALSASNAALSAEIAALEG

P5-AA-1HGe-S = molecular target: T27, P5-AA-1HGe-S; conditions: mean of both orientations
T27 chain: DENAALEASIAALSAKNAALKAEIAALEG

P6-AA-1HAA-H = molecular target: T28, P6-AA-1HAA-H; conditions: mean of both orientations
T28 chain: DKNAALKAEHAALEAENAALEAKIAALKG

P6-AA-1HAA-V = molecular target: T29, P6-AA-1HAA-V; conditions: mean of both orientations
T29 chain: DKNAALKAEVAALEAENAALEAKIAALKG

P6-AA-1HGe-W = molecular target: T30, P6-AA-1HGe-W; conditions: mean of both orientations
T30 chain: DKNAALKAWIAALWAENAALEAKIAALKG

P6-AA-1HAA-D = molecular target: T31, P6-AA-1HAA-D; conditions: mean of both orientations
T31 chain: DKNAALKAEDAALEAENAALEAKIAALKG

P6-AA-12HGe-D = molecular target: T32, P6-AA-12HGe-D; conditions: mean of both orientations
T32 chain: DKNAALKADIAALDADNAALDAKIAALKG

P6-AA-1HGe-R = molecular target: T33, P6-AA-1HGe-R; conditions: mean of both orientations
T33 chain: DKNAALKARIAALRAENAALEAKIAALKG

4H2219-AA = molecular target: T34, 4H2219-AA; conditions: mean of both orientations
T34 chain: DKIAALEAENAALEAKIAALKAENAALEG

4H2604-AA = molecular target: T35, 4H2604-AA; conditions: mean of both orientations
T35 chain: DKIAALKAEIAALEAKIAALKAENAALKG

4H432-AA = molecular target: T36, 4H432-AA; conditions: mean of both orientations
T36 chain: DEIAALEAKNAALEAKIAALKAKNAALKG

4H2947-AA = molecular target: T37, 4H2947-AA; conditions: mean of both orientations
T37 chain: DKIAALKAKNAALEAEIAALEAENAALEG

4H324-AA = molecular target: T38, 4H324-AA; conditions: mean of both orientations
T38 chain: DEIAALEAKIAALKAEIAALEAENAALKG

4H3449-AA = molecular target: T39, 4H3449-AA; conditions: mean of both orientations
T39 chain: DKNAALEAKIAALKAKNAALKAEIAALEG

P6-AA-12HAA-R = molecular target: T40, P6-AA-12HAA-R; conditions: mean of both orientations
T40 chain: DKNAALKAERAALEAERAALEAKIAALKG

P6-AA-12HAA-L = molecular target: T41, P6-AA-12HAA-L; conditions: mean of both orientations
T41 chain: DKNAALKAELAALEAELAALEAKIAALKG

P6-AA-12HAA-D = molecular target: T42, P6-AA-12HAA-D; conditions: mean of both orientations
T42 chain: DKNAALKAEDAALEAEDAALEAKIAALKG

DENAALEAENAALKAKIAALKAEIAALEG [4H1257-AA]
interaction score (4H895-AA): -1.61 | interaction score (4H486-AA): 1.54 | interaction score (4H1802-AA): -1.38

DENAALEAKIAALKAEIAALEAKIAALKG [4H1350-AA]
interaction score (4H1350-AA): 2.09 | interaction score (4H2512-AA): -0.538 | interaction score (4H662-AA): -1.35 | interaction score (4H2211-AA): -1.32

DENAALEAENAALEAEIAALEAEIAALEG [4H1153-AA]
interaction score (4H122-AA): -1.61 | interaction score (4H1352-AA): 0

DENAALEAEIAALEAKIAALEAKNAALKG [4H1064-AA]
interaction score (4H428-AA): -1.04 | interaction score (4H2948-AA): -0.884 | interaction score (4H656-AA): -1.36 | interaction score (4H3666-AA): -1.27 | interaction score (4H1146-AA): -0.282

DENAALKAKIAALEAKNAALEAKIAALEG [4H1845-AA]
interaction score (APC8191-AA): -1.67 | interaction score (4H2458-AA): -1.6 | interaction score (4H2447-AA): -1.57 | interaction score (APC8910-AA): -1.69 | interaction score (APC1015-AA): -1.28 | interaction score (APC7099-AA): -1.48 | interaction score (APC9096-AA): -2.08 | interaction score (APC232-AA): -2.09

DKNAALKAEIAALEAENAALEAKIAALKG [4H3606-AA]
interaction score (P5-AA-12HGe-D): -1.24 | interaction score (P5-AA-1HAA-N): 1.72 | interaction score (P5-AA-1HGe-H): 2.15 | interaction score (P5-AA-12HGe-S): -0.516 | interaction score (P5-AA-1HGe-S): 2.03

DENAALEAKIAALKAKNAALKAEIAALEG [4H1401-AA]
interaction score (P6-AA-1HAA-H): 2.06 | interaction score (P6-AA-1HAA-V): 2.18 | interaction score (P6-AA-1HGe-W): 1.14 | interaction score (P6-AA-1HAA-D): 0.667 | interaction score (P6-AA-12HGe-D): -0.647 | interaction score (P6-AA-1HGe-R): 1.53

DENAALKAEIAALKAENAALKAEIAALKG [4H1626-AA]
interaction score (4H2219-AA): -1.54

DEIAALEAENAALKAKNAALKAEIAALEG [4H249-AA]
interaction score (4H2604-AA): -1.73 | interaction score (4H432-AA): -1.72 | interaction score (4H2947-AA): -1.55 | interaction score (4H324-AA): -1.59 | interaction score (4H3449-AA): -1.43

DENAALEAKIAALKAKIAALKAEIAALEG [4H1385-AA]
interaction score (P6-AA-12HAA-R): 1.72 | interaction score (P6-AA-12HAA-L): 2.03 | interaction score (P6-AA-12HAA-D): -1.1
